Where a SMILES comes first, the peptide text is derived from it. The star is where a group is joined. Cbz = O=C(OCc1ccccc1)*; CH2F = FC*
Experiments:
[1] = test system: β-catenin in HCT8 and DLD1 cells; test: β-catenin signaling in colon cancer cells (western blot, fractionation, confocal); type: cell-based, human
Description: (§1) Colon carcinoma cells were grown on 8-well chamber slide (3×10^4/well, Millipore) overnight, followed by treatment with MakA for 6 or 24 hours and treated with either Alexa-568 labelled or unlabeled MakA (500 nM), fixed with 2% paraformaldehyde (20 min), permeabilized with Triton X (0.25%). Cells were incubated with anti-Ki67 (1:300), anti-β-catenin (1:300), anti-pAKT (1:100) primary antibodies overnight at +4° C., followed by incubation with corresponding Alexa-488 or Alex-568 conjugated secondary antibodies (1:200) for 1 hour. Finally, cells were counterstained with nuclear marker DAPI for 5 min. Slides were mounted with Fluoromount™ aqueous mounting medium (Sigma) and examined using EZC1 Eclipse laser scanning confocal microscope (Nikon), using 63×/1.4 plan Apo ns lens. Images were captured and processed using the NIS-Elements (Nikon) and ImageJ software.
To examine whether MakA affects β-catenin signaling in human colon cancer cells, HCT8 and DLD1 cells carrying mutations that inactivates APC tumor suppressor gene (Mouradov, D. et al. (2014) Cancer Res. 2014 Jun. 15; 74(12):3238-47) were used.
To address if MakA decreases the nuclear accumulation of β-catenin, cells were treated with MakA and fractionated into cytoplasmic and nuclear fractions.
As caspase-3 mediated fragmentation of β-catenin has been reported (Steinhusen, U. et al. (2000) J Biol Chem 275: 16345-16353), its role in MakA induced β-catenin fragmentation was investigated.

colon carcinoma cells [2] = test: Caspase inhibition and MakA-induced cell death; type: cell-based, human; details: pretreatment; Presto Blue, MTS, flow cytometry
Description: (§2) For cell death experiments, cells were grown on 96-well plate (1×10^4/well, Tecan Group Ltd) overnight and treated with MakA at different concentration for 48 hours at +37° C., 5% CO2. Cell death was quantified by two different biochemical methods: (1) reduction in PrestoBlue staining; and (2) reduction in MTS absorbance. Cell death is expressed as percentage (%) of untreated control cells for PrestoBlue assay or reduction in absorbance for MTS assay.
(§3) For cell death analysis, cells were treated with MakA or vehicle control for 48 h and were subjected to flow cytometry analysis for apoptotic cell death measurement using either Annexin V/Propidium iodide or Annexin V/7AAD (BD Pharmingen) staining according to manufactures instruction. Percentage of apoptotic cells was determined by BD LSRII and BD Accuri C6 flow cytometer (BD Bioscience), respectively.
To address if caspases plays an important role in MakA induced cell death, colon carcinoma cells were pretreated with zVAD-fmk, a pan caspase inhibitor; (Enzolifesciences, Cat #ALX-260-020-M001) followed by treatment with MakA.

[3] = test system: advanced colorectal cancer; details: cited from earlier work
HCT8 cells [4] = test: MakA with 5FU, tumor cell morphology; type: cell-based, human; details: HCT8, compared to untreated control
Description: B) Change in tumor cell morphology in response to MakA and 5FU or MakA at different concentration in combination with 5FU (20 μM). Scale bar=30 μm
Further, the effect on tumor cell morphology was investigated. Unlike 5FU or MakA alone, the combination of MakA and 5FU caused massive changes in tumor cell morphology (FIG. 8B).

CT26 cell line = test: CT26 xenograft mice model of colon cancer; type: in vivo; details: repeated intratumor injection, 25 μg, from day 9, sacrificed day 21, versus vehicle
Description: (§4) A) Colon cancer was established using the rapidly proliferating CT26 cell line. From day 9, mice were treated by repeated intratumor injection of MakA (25 μg) or Vehicle (Tris 20 mM) at indicated intervals and sacrificed on day 21.
as §4, with “The therapeutic effect of MakA against colon cancer was investigated in a well-established colon cancer model.” for “A)”, “21 (FIG. 7A).” for “21.”

C. elegans = details: MakA overexpressed in E. coli; cited from earlier work
[5] = test system: human colon carcinoma cells, HCT8; oral fibroblasts, PDL1; test: Live cell microscopy of cell morphology; type: cell-based; details: HCT8 versus PDL1
Description: Cells were grown in 96 well plate (1×10^4/well, Tecan Group Ltd) overnight and treated with MakA at different concentration for 48 hours at +37° C., 5% CO2. Fluorescence and bright field images were captured with fluorescence microscope (Nikon, Eclipse Ti). Images were processed using the NIS-Elements (Nikon) and ImageJ software. For live cell confocal microscopy, cells were grown on a coverslip and treated with Alexa-568 labelled MakA for 6 or 24 hours at +37° C., 5% CO2.
(§5) However, overexpression of at least three components (makCBA) or whole operon (makDCBA) was required for induction of lethality to C. elegans (FIG. 1A). The effect of purified MakA protein was investigated on in vitro cultured human tumor cell lines of diverse origin (HCT8 and DLD1=colon cancer cell, PC3=Prostate cancer cells, HTB9=Bladder cancer cell, PC3=Prostate cancer cell, Suit2=Pancreatic cancer cell, MCF7=Breast cancer cells).

[6] = test system: PIP5K1α, PLCβ, caspase-3 in HCT8 cells; test: Immunoblot of phospholipid signaling proteins; type: cell-based, human; details: HCT8, MakA 500 nM
Description: The effects of MakA on PIP5K1α, PLCβ, actin and caspase-3 were investigated. For immunoblot analysis, HCT8 cells treated with control or MakA toxin were collected and lysed with lysis buffer containing (50 mM Tris, 100 mM NaCl, 1 mM EDTA, 1 mM DTT, 1% Triton X 100, 2% SDS with 1× protease inhibitor cocktail and 1× phosphatase inhibitor). Protein samples were resolved on SDS-PAGE and processed for immunoblotting according to standard procedures. Antisera used were anti-PIP5K1a polyclonal antiserum (1:2000), anti-PLCβ polyclonal antiserum (1:2000), anti-actin polyclonal antiserum (1:5000), and anti-caspase 3 antiserum (1:1000) (all from Cell Signaling Technology, Inc).

human RBCs = test: Hemolysis of human RBCs; type: cell-based
From the text: However, overexpression of at least three components (makCBA) or whole operon (makDCBA) was required for lethality against C. elegans. (Dongre et al. (2018) Commun Biol. 2018 Jun. 7; 1:59) B) MakA causes cell death in tumor cell lines (HCT8 and DLD1=colon cancer cell, PC3=Prostate cancer cells, HTB9=Bladder cancer cell, PC3=Prostate cancer cell, Suit2=Pancreatic cancer cell, MCF7=Breast cancer cells) of diverse origin. The healthy non-cancerous cells from colon (CCD-18Co and CCD 841 CoN), prostate (PNT1A) and oral fibroblasts (PDL1) were intermediately sensitive compared to tumor cells. […] TritonX-100 (0.1%) induced RBCs hemolysis was used as a positive control. D) MakA induced dramatic changes in tumor cell morphology, unlike non-cancerous PDL1 fibroblasts that were largely unaffected. Scale bar=20 μm.

tumor cell membrane = test: Transmission electron microscopy of membranes; type: cell-based; details: versus vehicle (Tris 20 mM)
From the text: To address if MakA accumulation at the cell surface may play an important role in tumor cell membrane perturbation, cells treated with MakA were compared to untreated cells and imaged with transmission electron microscopy (TEM). […] The mitochondrial damage was confirmed by confocal microscopy (FIG. 4B).

[7] = test system: human tumor cell lines of diverse origin (HCT8, DLD1, PC3, HTB9, Suit2, MCF7); test: Cell death assays (PrestoBlue, MTS) in tumor cell lines; type: cell-based; details: 48 hours
Description: as §2, §5

tumor cell migration = test: Tumor cell migration; type: cell-based
HCT8 cells [8] = test: Apoptotic cell death by flow cytometry; type: cell-based, human; details: 48 h
Description: as §3
Apoptotic cell death in response to MakA was investigated using flow cytometry and fluorescent microscopy.

colon carcinoma cells [9] = test: Fluorescence and confocal microscopy of apoptosis markers; type: cell-based, human
From the text: (§6) A) MakA induces concentration-dependent apoptotic cell death in HCT8 cells. B) Quantification of flow cytometry events from (A). […] Scale bar=50 μm. D) MakA induces fragmentation of tumor cell nuclei. Scale bar=10 μm E) Accumulation of Bax (green) to the mitochondria of apoptotic cells by MakA. DAPI was used as a nuclear marker. Scale bar=10 μm. F) MakA caused loss of mitochondrial potential in colon carcinoma cells as evident by loss of DiOC6 staining, quantified by flow cytometry. G) MakA causes activation of pro-apoptotic proteins including caspase 3, cytochrome C and Bax and suppression of antiapoptotic protein, Bcl2.
as §1

[10] = test system: non-transformed colon cells (CCD-18Co and CCD 841 CoN), prostate (PNT1A) and oral fibroblasts (PDL1); test: Cell death assays in non-transformed cells; type: cell-based, human; details: at the concentration that effectively killed carcinoma cells
Description: as §2, §5

[11] = test system: Ki67, cyclin D1, VEGF in HCT8 and DLD1 cells; test: Ki67, cyclin D1 and VEGF expression; type: cell-based, human
[12] = test system: Bax, Bcl2, cytochrome c, caspase 3 in HCT8 cells; test: Western blotting of apoptosis proteins; type: cell-based, human
From the text: The regulation of apoptosis involves activation of caspases, increase in Bax/Bcl2 ratio and release of cytochrome c from mitochondria to cytoplasm (Elmore, S. (2007) Toxicol Pathol. 2007; 35(4): 495-516). The effect of MakA on expression of these proteins was investigated using western blotting.
The effect of MakA on expression of cytochrome c and caspase 3 activation was investigated.

colon carcinoma cells [13] = test: Mitochondrial potential by DiOC6 staining, flow cytometry; type: cell-based, human
From the text: as §6

tumor cell proliferation = test: Colony forming assay; type: cell-based
From the text: The effect of MakA on tumor cell proliferation was investigated.

[14] = western blot, HCT8 and DLD1 cells

## COC(=O)C[C@H](NC(=O)[C@H](C)NC(=O)[C@@H](NC(=O)OCc1ccccc1)C(C)C)C(=O)CF [zVAD-fmk, reference compound] (Cbz-Val-Ala-Asp(OMe)-CH2F)
[1]; HCT8 and DLD1 cells
  effect of caspase inhibitor on MakA-induced β-catenin fragmentation: rescued both HCT8 and DLD1 cells from MakA-induced fragmentation and decrease in β-catenin
Colon carcinoma cells [2]
  effect of caspase inhibitor on MakA-induced cell death: partially rescued the cells from MakA-induced cell death

## O=c1[nH]cc(F)c(=O)[nH]1 [5FU, 5-fluorouracil, reference compound]
[3]
  overall response rate: 10-15%
HCT8 cells [4]
  tumor cell morphology: caused increased cell size

B1: MakA (protein, listed as Vibrio cholerae)
chain: MSQQVTQLNPTQQTTQSAFLATTVITAQCHAILNTQFTPPTVKPDWFDDLSKKLDSAKLVAKQWIDDLGPQVSASIPSSVINFDATFQASIDAIHELYKADPTASGKDNTTVQQASQIMTALSSQVSGIEATVKGMNKELSDWGVKMQAAHDDLVNGATNIQKTIIDLQTDIESMNNAIDNNRAAIEKLNKDLVYAQVAVGVGIFMLVAGVALTVATAGTAAAVSGGIAAVGAASIIAGGVTWGVLQNQIDDDYDSIAQEQKQKAEDQQQIIALQGLSNASSAVVSAIETSTSVLSDFETTWTVFGNELDDVVTKLNNGASMQSIIMEKVMSDAAKNEWDDAVELAKQLASAKIAIETKELAPAVKQAA
CT26 cell line
  tumor volume: caused significant reduction in tumor volume
C. elegans
  lethality to C. elegans: not lethal to C. elegans
[5]
  plasma membrane remodeling: induced plasma membrane remodeling in human colon carcinoma cells, HCT8 but not in oral fibroblasts, PDL1
[6]
  cleaved caspase-3: expression of cleaved caspase-3 was also observed
  level of PIP5Kα: efficiently reduce the level of PIP5Kα
  level of PLC-β: reduced level of PLC-β
[1]; HCT8 and DLD1 cells
  β-catenin expression: caused suppression of β-catenin expression in both HCT8 and DLD1 cells
[1]; compared to untreated control
  β-catenin localization: accumulate at the plasma membrane
[1]; fractionated cells
  β-catenin expression in cytoplasmic and nuclear fractions: caused reduction in β-catenin expression both in cytoplasmic and nuclear fractions
[1]; [14]
  β-catenin fragmentation: β-catenin fragmentation was detected
Human RBCs
  lysis of human RBCs: failed to induce lysis of human RBCs
Tumor cell membrane
  nuclear membrane by TEM: irregular thin nuclear membrane indicating its damage
  plasma membrane and mitochondria by TEM: induced plasma membrane remodelling and mitochondrial damage
[7]
  cell death in tumor cells: induces cell death in diverse range of tumor cells in a dose-dependent manner
Tumor cell migration
  tumor cell migration: caused suppression of tumor cell migration in a dose dependent manner
HCT8 cells [8]
  early and late apoptotic cell death: dose-dependent increase in both early and late apoptotic cell death
HCT8 cells [4]
  tumor cell morphology: caused rounding of the cells
Colon carcinoma cells [9]
  Bax accumulation to mitochondria: causes accumulation of active Bax to the mitochondria of an apoptotic cell
  plasma membrane permeabilization (uptake of propidium iodide): causes permeabilization of tumor cell plasma membrane
Colon carcinoma cells [9]; fluorescence and confocal microscopy
  nuclear staining of apoptotic cells: nuclear fragmentation and chromatin condensation
[10]
  sensitivity of non-transformed cells to MakA: largely unaffected or intermediately sensitive
[11]
  Ki67 positive cells: reduction in number of Ki67 positive cells
  cyclin D1 expression: reduction in cyclin D1 expression
[11]; [14]
  expression of VEGF: inhibited in both HCT8 and DLD1 cells
[12]
  caspase 3 activation: activation of caspase 3
  expression of Bax: induction in expression of pro-apoptotic protein, Bax
  expression of Bcl2: decrease in expression of anti-apoptotic protein, Bcl2
  expression of cytochrome c: increase in cytochrome c expression
Colon carcinoma cells [13]
  mitochondrial membrane potential: caused depolarization of the mitochondrial membrane
Tumor cell proliferation
  tumor cell proliferation: caused significant reduction in tumor cell proliferation

From US12533393B2, “Vibrio cholerae protein for use against cancer” (priority 2019, dated 2026)
